Laboratory results published in paper PMC7566517, “Long-acting antibody ligand mimetics for HER4-selective agonism” (Scientific Reports, 2020).

T1: recombinant human HER4 ECD, biotinylated (human, UniProt Q15303 26-651, biotinylated (site not stated))
T1 construct: human epidermal growth factor receptor family member 4 (HER4, ErbB4), extracellular domain; Captured on streptavidin biosensors by its biotin; also called ErbB4; source: in-house purified recombinant
T1 sequence (looked up): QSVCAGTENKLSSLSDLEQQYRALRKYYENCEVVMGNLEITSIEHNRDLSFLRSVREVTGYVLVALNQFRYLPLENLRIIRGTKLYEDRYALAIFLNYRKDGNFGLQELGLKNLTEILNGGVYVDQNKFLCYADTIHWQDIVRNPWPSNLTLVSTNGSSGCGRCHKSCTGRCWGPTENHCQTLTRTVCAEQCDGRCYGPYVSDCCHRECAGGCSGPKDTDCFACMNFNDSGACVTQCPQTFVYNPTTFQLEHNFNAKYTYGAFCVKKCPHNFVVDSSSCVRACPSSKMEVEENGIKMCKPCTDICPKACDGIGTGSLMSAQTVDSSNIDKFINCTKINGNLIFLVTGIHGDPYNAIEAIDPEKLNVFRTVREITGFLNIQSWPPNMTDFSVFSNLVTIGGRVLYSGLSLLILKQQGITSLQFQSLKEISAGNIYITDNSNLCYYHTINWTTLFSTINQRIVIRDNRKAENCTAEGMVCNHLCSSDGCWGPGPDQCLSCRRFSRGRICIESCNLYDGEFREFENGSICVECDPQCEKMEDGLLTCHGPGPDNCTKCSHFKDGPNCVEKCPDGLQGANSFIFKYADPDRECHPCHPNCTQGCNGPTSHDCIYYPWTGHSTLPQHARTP


Molecular target: T1, recombinant human HER4 ECD, biotinylated
Test: BLI; Octet 384; biotinylated HER4 or HER3 at 1 μg/mL captured on streptavidin biosensors; PBS pH 7.4, 3 mg/mL BSA, 0.05% Tween 20; serial dilutions of the variants; steady-state fit
Conditions: both partners purified

| Binder | Kd [nM] |
| --- | --- |
| NRG1 fused with human serum albumin (ligand, UniProt Q02297-6 177-236, looked up, neuregulin 1 (NRG1) fused with HSA, control protein; Control protein; also called NRG1-HSA) SHLVKCAEKEKTFCVNGGECFMVKDLSNPSRYLCKCPNEFTGDRCQNYVMASFYKHLGIE | 460 |
| ALM3 (antibody ligand mimetic 3) (antibody) chain 1: not shown chain 2: EIVLTQSPGTLSLSPGERATFSCRSSHSIRSRRVAWYQHKPGQAPRLVIHGVSNRASGISDRFSGSGSGTDFTLTITRVEPEDFALYYCQVYGASSYTFGQGTKLERKRTVAAPSVFIFPPSDEQLKSGTASVVCLLNNFYPREAKVQWKVDNALQSGNSQESVTEQDSKDSTYSLSSTLTLSKADYEKHKVYACEVTHQGLRSPVTKSFNRGEC | > 10000 |

Continued by falling Kd, values first:

| Kd [nM] | Binder |
| --- | --- |
| 5600 | ALM4 (antibody ligand mimetic 4) (antibody) chain 1: not shown chain 2: EIVLTQSPGTLSLSPGERATFSCRSSHSIRSRRVAWYQHKPGQAPRLVIHGVSNRASGISDRFSGSGSGTDFTLTITRVEPEDFALYYCQVYGASSYTFGQGTKLERKRTVAAPSVFIFPPSDEQLKSGTASVVCLLNNFYPREAKVQWKVDNALQSGNSQESVTEQDSKDSTYSLSSTLTLSKADYEKHKVYACEVTHQGLRSPVTKSFNRGEC |
| 640 | NRG1-MFc fusion protein (NRG1 EGF domain fused with monomeric Fc) (Fc fusion, human, neuregulin-1 beta (NRG1b) EGF domain, about 60 amino acids; numbers count on: the EGF domain (His2, Cys45); also called neuregulin-MFc; parental clone; source: HEK293FT, transient transfection, purified (protein A); not shown: monomeric Fc (MFc C4)) GTSHLVKCAEKEKTFCVNGGECFMVKDLSNPSRYLCKCPNEFTGDRCQNYVMASF |
